Data: paper PMC2819637
Where “and” joins values, the source holds several entries; their conditions need not be identical. Equal values may be shown once. Read-outs that look alike come from different tables or passages of the source.

Assays:
[1] = target: PKR (Homo sapiens) (UniProt P19525); settings: cited from earlier work
[2] = target: PKR (Homo sapiens) (UniProt P19525); assay: analytical ultracentrifugation; settings: cited from earlier work
[3] = target: phosphorylated monomeric PKR (pPKRm) (human) (UniProt P19525); assay: AUC

Substance | Kd [1] | Kd [2] | Kd [3]
PKR (from UniProt P19525) | 500 µM and 450 µM | 0.95 µM | –
phosphorylated monomeric PKR (pPKRm) (from UniProt P19525 1-551) (enzyme) | – | – | 473 µM
